Assay results as given in paper PMC2716403 (2009).

B1: Nup153 ZnF3 ZnF3 (peptide)
chain: VGSWECPVCCVSNKAEDSRCVSCTSEKPG
modifications: GDP-bound Ran
B2: Nup153 ZnF1 ZnF1 (peptide)
chain: AGSSWQCDTCLLQNKVTDNKCIACQAAKL
modifications: GDP-bound Ran
B3: Nup153 ZnF region (protein)
chain: AGSSWQCDTCLLQNKVTDNKCIACQAAKLPLKETAKQTGIGTPSKSDKPASTSGTGFGDKFKPAIGTWDCDTCLVQNKPEAVKCVACETPKPGTGVKRALPLTVASESPVTASSSTTVTTGTLGFGDKFKRPVGSWECPVCCVSNKAEDSRCVSCTSEKPGLVSASSSNSVPVSLPSGGCLGLDKFKKPEGSWDCEVCLVQNKADSTKCIACESAKPGTKSEFKGFGT
modifications: GDP-bound Ran
B4: Nup153 ZnF region (protein)
chain: B3 chain

Each binder was assayed against Ran (Homo sapiens, UniProt P62826) (assay: ITC).

Q: Which Kd does the source give for B1 here?
A: 6.6 µM

Q: With B2 as the binder, how does the Kd read?
A: 6.5 µM

Q: With B3 as the binder, how does the Kd read?
A: 1 µM

Q: B4 was tested. Which Kd did it give?
A: 20 µM
